Experimental findings from patent US10800813 (Bicycle, dated 2020) are described below.

B1: Ac-(06-34-18) Aze3 (peptide)
peptide: Ac-CSW[Aze]ARCLHQDLC-NH2
modifications: linker 1-7-13 via TBMB
SMILES: CC(=O)N[C@H]1CSCc2cc3cc(c2)CSC[C@H](NC(=O)[C@H](CCCNC(=N)N)NC(=O)[C@H](C)NC(=O)[C@@H]2CCN2C(=O)[C@H](Cc2c[nH]c4ccccc24)NC(=O)[C@H](CO)NC1=O)C(=O)N[C@@H](CC(C)C)C(=O)N[C@@H](Cc1c[nH]cn1)C(=O)N[C@@H](CCC(N)=O)C(=O)N[C@@H](CC(=O)O)C(=O)N[C@@H](CC(C)C)C(=O)N[C@H](C(N)=O)CSC3
notes: also called Ac-06-34-18(TMB)-NH2 Aze3
B2: Ac-(06-34-18) 4FluoPro3 (peptide)
peptide: Ac-CSW[4FluoPro]ARCLHQDLC-NH2
modifications: linker 1-7-13 via TBMB
B3: Ac-(06-34-18) NorHar3 (peptide)
peptide: Ac-CSW[Tpi]ARCLHQDLC-NH2
modifications: linker 1-7-13 via TBMB
SMILES: CC(=O)N[C@H]1CSCc2cc3cc(c2)CSC[C@H](NC(=O)[C@H](CCCNC(=N)N)NC(=O)[C@H](C)NC(=O)[C@@H]2Cc4c([nH]c5ccccc45)CN2C(=O)[C@H](Cc2c[nH]c4ccccc24)NC(=O)[C@H](CO)NC1=O)C(=O)N[C@@H](CC(C)C)C(=O)N[C@@H](Cc1c[nH]cn1)C(=O)N[C@@H](CCC(N)=O)C(=O)N[C@@H](CC(=O)O)C(=O)N[C@@H](CC(C)C)C(=O)N[C@H](C(N)=O)CSC3
B4: Ac-(06-34-18) Pip3 (peptide)
peptide: Ac-CSW[Pip]ARCLHQDLC-NH2
modifications: linker 1-7-13 via TBMB
SMILES: CC(=O)N[C@H]1CSCc2cc3cc(c2)CSC[C@H](NC(=O)[C@H](CCCNC(=N)N)NC(=O)[C@H](C)NC(=O)[C@@H]2CCCCN2C(=O)[C@H](Cc2c[nH]c4ccccc24)NC(=O)[C@H](CO)NC1=O)C(=O)N[C@@H](CC(C)C)C(=O)N[C@@H](Cc1c[nH]cn1)C(=O)N[C@@H](CCC(N)=O)C(=O)N[C@@H](CC(=O)O)C(=O)N[C@@H](CC(C)C)C(=O)N[C@H](C(N)=O)CSC3
B5: Ac-(06-34-18) Ind3 (peptide)
peptide: Ac-CSW[Ind]ARCLHQDLC-NH2
modifications: linker 1-7-13 via TBMB
SMILES: CC(=O)N[C@H]1CSCc2cc3cc(c2)CSC[C@H](NC(=O)[C@H](CCCNC(=N)N)NC(=O)[C@H](C)NC(=O)[C@@H]2Cc4ccccc4N2C(=O)[C@H](Cc2c[nH]c4ccccc24)NC(=O)[C@H](CO)NC1=O)C(=O)N[C@@H](CC(C)C)C(=O)N[C@@H](Cc1c[nH]cn1)C(=O)N[C@@H](CCC(N)=O)C(=O)N[C@@H](CC(=O)O)C(=O)N[C@@H](CC(C)C)C(=O)N[C@H](C(N)=O)CSC3
B6: Ac-(06-34-18) HyP3 (peptide)
peptide: Ac-CSW[Hyp]ARCLHQDLC-NH2
modifications: linker 1-7-13 via TBMB
SMILES: CC(=O)N[C@H]1CSCc2cc3cc(c2)CSC[C@H](NC(=O)[C@H](CCCNC(=N)N)NC(=O)[C@H](C)NC(=O)[C@@H]2C[C@@H](O)CN2C(=O)[C@H](Cc2c[nH]c4ccccc24)NC(=O)[C@H](CO)NC1=O)C(=O)N[C@@H](CC(C)C)C(=O)N[C@@H](Cc1c[nH]cn1)C(=O)N[C@@H](CCC(N)=O)C(=O)N[C@@H](CC(=O)O)C(=O)N[C@@H](CC(C)C)C(=O)N[C@H](C(N)=O)CSC3
B7: Ac-(06-34-18) Tic3 (peptide)
peptide: Ac-CSW[Tic]ARCLHQDLC-NH2
modifications: linker 1-7-13 via TBMB
SMILES: CC(=O)N[C@H]1CSCc2cc3cc(c2)CSC[C@H](NC(=O)[C@H](CCCNC(=N)N)NC(=O)[C@H](C)NC(=O)[C@@H]2Cc4ccccc4CN2C(=O)[C@H](Cc2c[nH]c4ccccc24)NC(=O)[C@H](CO)NC1=O)C(=O)N[C@@H](CC(C)C)C(=O)N[C@@H](Cc1c[nH]cn1)C(=O)N[C@@H](CCC(N)=O)C(=O)N[C@@H](CC(=O)O)C(=O)N[C@@H](CC(C)C)C(=O)N[C@H](C(N)=O)CSC3
B8: Ac-(06-34-18) Aib3 (peptide)
peptide: Ac-CSW[Aib]ARCLHQDLC-NH2
modifications: linker 1-7-13 via TBMB
SMILES: CC(=O)N[C@H]1CSCc2cc3cc(c2)CSC[C@H](NC(=O)[C@H](CCCNC(=N)N)NC(=O)[C@H](C)NC(=O)C(C)(C)NC(=O)[C@H](Cc2c[nH]c4ccccc24)NC(=O)[C@H](CO)NC1=O)C(=O)N[C@@H](CC(C)C)C(=O)N[C@@H](Cc1c[nH]cn1)C(=O)N[C@@H](CCC(N)=O)C(=O)N[C@@H](CC(=O)O)C(=O)N[C@@H](CC(C)C)C(=O)N[C@H](C(N)=O)CSC3
B9: 06-34-01 (peptide)
peptide: ACSWPARCVHQDLCA
modifications: linker 2-8-14 via TBMB; not fully specified (N-terminus, C-terminus)
B10: 06-34-02 (peptide)
peptide: ACRWPARCTHQDLCA
modifications: linker 2-8-14 via TBMB; not fully specified (N-terminus, C-terminus)
B11: 06-34-03 (01 + 02) (peptide)
peptide: ACSWPARCTHQDLCA
modifications: linker 2-8-14 via TBMB; not fully specified (N-terminus, C-terminus)
B12: 06-34-04 (peptide)
peptide: ACRWPARCMHQDLCA
modifications: linker 2-8-14 via TBMB; not fully specified (N-terminus, C-terminus)
B13: 06-34-05 (peptide)
peptide: ACRWPARCLHQDLCA
modifications: linker 2-8-14 via TBMB; not fully specified (N-terminus, C-terminus)
B14: 06-34-17 (01 + 04) (peptide)
peptide: ACSWPARCMHQDLCA
modifications: linker 2-8-14 via TBMB; not fully specified (N-terminus, C-terminus)
B15: 06-34-19 (01 + 05 + R/K) (peptide)
peptide: ACSWPAKCLHQDLCA
modifications: linker 2-8-14 via TBMB
notes: also called WPAK peptide
B16: Ac-(06-34-18) 3,3-DPA2 (peptide)
peptide: Ac-CS[Dip]PARCLHQDLC-NH2
modifications: linker 1-7-13 via TBMB
SMILES: CC(=O)N[C@H]1CSCc2cc3cc(c2)CSC[C@H](NC(=O)[C@H](CCCNC(=N)N)NC(=O)[C@H](C)NC(=O)[C@@H]2CCCN2C(=O)[C@H](C(c2ccccc2)c2ccccc2)NC(=O)[C@H](CO)NC1=O)C(=O)N[C@@H](CC(C)C)C(=O)N[C@@H](Cc1c[nH]cn1)C(=O)N[C@@H](CCC(N)=O)C(=O)N[C@@H](CC(=O)O)C(=O)N[C@@H](CC(C)C)C(=O)N[C@H](C(N)=O)CSC3
B17: Ac-(06-34-18) 4Pal2 (peptide)
peptide: Ac-CS[4Pal]PARCLHQDLC-NH2
modifications: linker 1-7-13 via TBMB
SMILES: CC(=O)N[C@H]1CSCc2cc3cc(c2)CSC[C@H](NC(=O)[C@H](CCCNC(=N)N)NC(=O)[C@H](C)NC(=O)[C@@H]2CCCN2C(=O)[C@H](Cc2ccncc2)NC(=O)[C@H](CO)NC1=O)C(=O)N[C@@H](CC(C)C)C(=O)N[C@@H](Cc1c[nH]cn1)C(=O)N[C@@H](CCC(N)=O)C(=O)N[C@@H](CC(=O)O)C(=O)N[C@@H](CC(C)C)C(=O)N[C@H](C(N)=O)CSC3
B18: Ac-(06-34-18) NorHar2 (peptide)
peptide: Ac-CS[Tpi]PARCLHQDLC-NH2
modifications: linker 1-7-13 via TBMB
SMILES: CC(=O)N[C@H]1CSCc2cc3cc(c2)CSC[C@H](NC(=O)[C@H](CCCNC(=N)N)NC(=O)[C@H](C)NC(=O)[C@@H]2CCCN2C(=O)[C@@H]2Cc4c([nH]c5ccccc45)CN2C(=O)[C@H](CO)NC1=O)C(=O)N[C@@H](CC(C)C)C(=O)N[C@@H](Cc1c[nH]cn1)C(=O)N[C@@H](CCC(N)=O)C(=O)N[C@@H](CC(=O)O)C(=O)N[C@@H](CC(C)C)C(=O)N[C@H](C(N)=O)CSC3
B19: Ac-(06-34-18) 4,4,BPal2 (peptide)
peptide: Ac-CS[Bip]PARCLHQDLC-NH2
modifications: linker 1-7-13 via TBMB
SMILES: CC(=O)N[C@H]1CSCc2cc3cc(c2)CSC[C@H](NC(=O)[C@H](CCCNC(=N)N)NC(=O)[C@H](C)NC(=O)[C@@H]2CCCN2C(=O)[C@H](Cc2ccc(-c4ccccc4)cc2)NC(=O)[C@H](CO)NC1=O)C(=O)N[C@@H](CC(C)C)C(=O)N[C@@H](Cc1c[nH]cn1)C(=O)N[C@@H](CCC(N)=O)C(=O)N[C@@H](CC(=O)O)C(=O)N[C@@H](CC(C)C)C(=O)N[C@H](C(N)=O)CSC3
B20: Ac-(06-34-18) Cha2 (peptide)
peptide: Ac-CS[Cha]PARCLHQDLC-NH2
modifications: linker 1-7-13 via TBMB
SMILES: CC(=O)N[C@H]1CSCc2cc3cc(c2)CSC[C@H](NC(=O)[C@H](CCCNC(=N)N)NC(=O)[C@H](C)NC(=O)[C@@H]2CCCN2C(=O)[C@H](CC2CCCCC2)NC(=O)[C@H](CO)NC1=O)C(=O)N[C@@H](CC(C)C)C(=O)N[C@@H](Cc1c[nH]cn1)C(=O)N[C@@H](CCC(N)=O)C(=O)N[C@@H](CC(=O)O)C(=O)N[C@@H](CC(C)C)C(=O)N[C@H](C(N)=O)CSC3

Numbered stars: 1 amine (or outer) side, 2 acyl side, 3 side chain; on linkers, the order of the positions; unused ones are H or OH. Bridge positions count the residues as written; N and C are the ends. Square brackets hold non-standard residues; d marks the D form. Ends that are not written are not given here. Ind = L-indoline-2-carboxylic acid, O=C([C@@H]1Cc2ccccc2N1[*:1])[*:2]; Bip = N[C@@H](Cc1ccc(-c2ccccc2)cc1)C(=O)O; Tpi = O=C(O)[C@@H]1Cc2c([nH]c3ccccc23)CN1; Dip = N[C@H](C(=O)O)C(c1ccccc1)c1ccccc1; TBMB = c1c(C[*:1])cc(C[*:3])cc1C[*:2]; Hyp = O=C(O)[C@@H]1C[C@@H](O)CN1; 4Pal = N[C@@H](Cc1ccncc1)C(=O)O; Tic = O=C(O)[C@@H]1Cc2ccccc2CN1; Cha = N[C@@H](CC1CCCCC1)C(=O)O; 4FluoPro = 4-fluoroproline; Pip = O=C(O)[C@@H]1CCCCN1; Aze = O=C(O)[C@@H]1CCN1; Aib = CC(C)(N)C(=O)O

T2 sequence (P14272 391-638 limits assumed): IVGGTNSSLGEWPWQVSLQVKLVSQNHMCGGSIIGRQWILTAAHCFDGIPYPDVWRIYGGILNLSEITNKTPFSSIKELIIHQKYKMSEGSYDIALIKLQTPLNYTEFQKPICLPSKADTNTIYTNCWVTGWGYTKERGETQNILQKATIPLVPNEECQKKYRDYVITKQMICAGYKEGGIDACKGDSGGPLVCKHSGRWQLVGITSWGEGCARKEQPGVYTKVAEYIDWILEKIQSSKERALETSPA

For one test, the target named is T1, human plasma Kallikrein (human, UniProt P03952 20-638, limits assumed).
T1 construct: also called hPK; human PK
T1 sequence (P03952 20-638 limits assumed): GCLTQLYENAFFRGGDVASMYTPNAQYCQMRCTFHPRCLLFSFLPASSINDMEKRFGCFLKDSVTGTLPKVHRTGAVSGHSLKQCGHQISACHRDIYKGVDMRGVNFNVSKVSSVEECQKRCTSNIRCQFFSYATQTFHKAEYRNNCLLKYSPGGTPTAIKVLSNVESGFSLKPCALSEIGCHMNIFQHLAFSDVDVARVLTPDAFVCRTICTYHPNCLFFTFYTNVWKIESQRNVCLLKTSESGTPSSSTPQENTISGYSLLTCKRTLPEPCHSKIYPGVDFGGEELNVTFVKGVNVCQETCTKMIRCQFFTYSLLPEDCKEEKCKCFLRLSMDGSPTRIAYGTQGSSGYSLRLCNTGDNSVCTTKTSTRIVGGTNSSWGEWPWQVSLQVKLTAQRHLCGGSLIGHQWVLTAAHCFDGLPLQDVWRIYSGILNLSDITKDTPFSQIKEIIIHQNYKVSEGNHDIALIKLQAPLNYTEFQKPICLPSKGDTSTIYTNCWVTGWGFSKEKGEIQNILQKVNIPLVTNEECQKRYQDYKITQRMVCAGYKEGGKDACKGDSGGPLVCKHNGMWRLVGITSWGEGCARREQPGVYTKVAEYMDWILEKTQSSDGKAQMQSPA
Briefly: enzyme inhibition assay.
Regarding B1, the “fold increase in affinity against wildtype” value worked out at 3 fold.

The next test deals with T1, human plasma Kallikrein. The test is described as follows: enzyme inhibition assay. The source holds these as a separate data set.
In the case of B2, affinity was put at a Ki of 0.24 nM.

For the molecule B1, the Ki – broadly, a measure of affinity in units of concentration, obtained from inhibition or displacement – came to 0.06 nM.

For B3, the affinity corresponds to a Ki of 2.99 nM.

B4 yielded a Ki of 0.26 nM.

On to B5, for which the affinity, expressed as Ki, was 1.35 nM.

With B6, the affinity, expressed as Ki, was 0.41 nM.

Take B7: the Ki was found to be 13.5 nM.

For B8, the Ki was found to be 1.2 nM.

A further test deals with T1, human plasma Kallikrein. Briefly: enzyme inhibition assay. The source holds these as a separate data set.
With B9, the IC50 (as a rule, the concentration needed to halve the response being measured) came out at 0.15 nM.

With B10, it took 0.16 nM to reach half-maximal inhibition (IC50).

As to B11, the midpoint of inhibition, the IC50, lay at 0.082 nM.

In turn, B12 yielded an IC50 of 0.075 nM.

As to B13, the IC50 came out at 0.076 nM.

The molecule B14 displayed an IC50 of 0.073 nM.

A further test concerns the target T2, Rat plasma Kallikrein (rat, UniProt P14272 391-638, limits assumed).
T2 construct: domain: catalytic domain; also called rPK; rat PK
Briefly: enzyme inhibition assay.
Regarding B9, the IC50 worked out at 6.12 nM.

B10 yielded an IC50 of 1.09 nM.

In turn, B15 registered an IC50 of 4.67 nM.

B11 came in with an IC50 of 0.87 nM.

B12 showed an IC50 of 0.56 nM.

Molecule B13 displayed an IC50 of 0.62 nM.

Take B14: the IC50 is 0.44 nM.

A further test has as its target T1, human plasma Kallikrein. The test is described as follows: enzyme inhibition assay. The source holds these as a separate data set.
The molecule B16 showed an inhibitory constant (Ki) of 1.5 nM.

The molecule B17 yielded a Ki of 72 nM.

As to B18, the Ki came to 24 nM.

Take B19: the Ki was 464 nM.

In turn, B20 yielded a Ki of 4.7 nM.
